From patent US9114148 come the findings set out here.

The target of this test is cardiac protein phosphatase 1 (type 1 phosphatase activity of mouse hearts) (mouse). Nature of the test: cell-based or functional assay.

Substance “constitutively active, truncated inhibitor-1 (I-T35D; AA 1-65), mouse (from UniProt Q9ERT9 1-65)” registered a type 1 phosphatase activity of 15 % decrease.
